# According to patent US20160058880:
# Tests used:
# [1] = tested on: Succinyl-βALPF-doxorubicin
# [2] = tested on: N-succinyl-beta-alanyl-L-leucyl-L-alanyl-L-leucyl-doxorubicin
substance,measurement,setting,value
"TOP (recombinant human thimet oligopeptidase, R&D systems, Ref 3439-ZN)",cleavage by purified TOP 5 nM (grade; * = less than 5% of metabolites detected),PhAc-AIGP-doxorubicin,-*
same,cleavage by purified TOP 5 nM (grade; * = less than 5% of metabolites detected),PhAc-ALAF-doxorubicin,-*
same,cleavage by purified TOP 5 nM (grade),PhAc-ALAL-doxorubicin,+
same,cleavage by purified TOP 5 nM (grade),[1],-
same,cleavage by purified TOP 5 nM (grade),PhAc-KLGP-doxorubicin,+
same,cleavage by purified TOP 5 nM (grade),PhAc-DLGP-doxorubicin,-
same,cleavage by purified TOP 5 nM (grade),[2],+
same,cleavage by purified TOP 5 nM (grade),PhAc-ALGP-doxorubicin,+
same,cleavage by purified TOP 5 nM (grade; * = less than 5% of metabolites detected),PhAc-ALPF-doxorubicin,-*
same,cleavage by purified TOP 5 nM (grade),LGP-Dox,-
same,cleavage by purified TOP 5 nM (grade),PhAc-TSGP-doxorubicin,+
same,cleavage by purified TOP 5 nM (grade),PhAc-GPGP-doxorubicin,-
